Reference: patent US20220233690A1

Molecular target: CD40 (human) (UniProt P25942)
Assay: cell-based or functional assay

Sequence of UniProt P25942 (P25942 21-277): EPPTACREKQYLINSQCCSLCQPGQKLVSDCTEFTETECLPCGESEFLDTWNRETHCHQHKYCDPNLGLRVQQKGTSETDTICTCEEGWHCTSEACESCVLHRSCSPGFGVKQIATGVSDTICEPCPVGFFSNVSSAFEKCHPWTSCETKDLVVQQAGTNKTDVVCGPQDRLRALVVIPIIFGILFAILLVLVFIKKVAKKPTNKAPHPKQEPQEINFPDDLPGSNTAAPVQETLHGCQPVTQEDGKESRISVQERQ

Substance: Anti-CD40 antibody (IgG1 mutant, REGN3794)
- T cell activation (percentage of live CD2+CD16-CD8+ cells expressing CD25) (% below CD20×CD3 (REGN1979) alone): 35
